The values below come from US11882829B2, “Fusion proteins and methods for stimulating plant growth, protecting plants, and immobilizing bacillus spores on plants” (Spogen Biotech Inc., priority 2013, dated 2024).

To fix the notation:
B1: Rhamnose Promoters (SEQ ID NO: 96): Rhamnose promoter (B. thuringiensis Al Hakam) (nucleic acid, listed as Bacillus thuringiensis)
DNA: ATTCACTACAACGGGGATGAGTTTGATGCGGATACATATGAGAAGTACCGGAAAGTGTTTGTAGAACATTACAAAGATATATTATCTCCATCATAAAGGAGAGATGCAAAG
modifications: expressed or natural sequence
B2: CotY (SEQ ID NO: 97) (nucleic acid, listed as Bacillus anthracis)
DNA: CGCGCACCACTTCGTCGTACAACAACGCAAGAAGAAGTTGGGGATACAGCAGTATTCTTATTCAGTGATTTAGCACGCGGCGTAACAGGAGAAAACATTCACGTTGATTCAGGGTATCATATCTTAGGATAAATATAATATTAATTTTAAAGGACAATCTCTACATGTTGAGATTGTCCTTTTTATTTGTTCTTAGAAAGAACGATTTTTAACGAAAGTTCTTACCACGTTATGAATATAAGTATAATAGTACACGATTTATTCAGCTACGTA
B3: YjcB (SEQ ID NO: 94): YjcB promoter (B. thuringiensis serovar kurstaki str. HD73) (nucleic acid, listed as Bacillus thuringiensis)
DNA: ATATATTTTCATAATACGAGAAAAAGCGGAGTTTAAAAGAATGAGGGAACGGAAATAAAGAGTTGTTCATATAGTAAATAGACAGAATTGACAGTAGAGGAGA
modifications: expressed or natural sequence
B4: YjcA (SEQ ID NO: 93): YjcA promoter (B. thuringiensis serovar kurstaki str. HD73) (nucleic acid, listed as Bacillus thuringiensis)
DNA: TTAATGTCACTCCTTATCTTCTTGTTTGTATTTACATTAATAAGATATTGGAGTTGAGGAGATTTGGTCACAATCTCAAGACCTTTTTTTTAAATAGGCGAAAGAGGATAAGGGAAGGTGGAATTA
modifications: expressed or natural sequence
B5: ExsY (SEQ ID NO: 91): ExsY promoter (B. thuringiensis serovar konkukian str. 97-27) (nucleic acid, listed as Bacillus thuringiensis)
DNA: TAATTCCACCTTCCCTTATCCTCTTTCGCCTATTTAAAAAAAGGTCTTGAGATTGTGACCAAATCTCCTCAACTCCAATATCTTATTAATGTAAATACAAACAAGAAGATAAGGAGTGACATTAA
modifications: expressed or natural sequence
B6: Sigma K (SEQ ID NO: 99) (nucleic acid, listed as Bacillus anthracis)
DNA: TATATCATATGTAAAATTAGTTCTTATTCCCACATATCATATAGAATCGCCATATTATACATGCAGAAAACTAAGTATGGTATTATTCTTAAATTGTTTAGCACCTTCTAATATTACAGATAGAATCCGTCATTTTCAACAGTGAACATGGATTTCTTCTGAACACAACTCTTTTTCTTTCCTTATTTCCAAAAAGAAAAGCAGCCCATTTTAAAATACGGCTGCTTGTAATGTACATTA
B7: BclA (SEQ ID NO: 85) (nucleic acid, listed as Bacillus anthracis)
DNA: TAATCACCCTCTTCCAAATCAATCATATGTTATACATATACTAAACTTTCCATTTTTTTAAATTGTTCAAGTAGTTTAAGATTTCTTTTCAATAATTCAAATGTCCGTGTCATTTTCTTTCGGTTTTGCATCTACTATATAATGAACGCTTTATGGAGGTGAATTTATG
B8: BclA adjacent DS Glycosyl transferase promoter 2 (SEQ ID NO: 102): BclA cluster glycosyl transferase operon 2 promoter (nucleic acid, listed as Bacillus thuringiensis)
DNA: ACATAAATTCACCTCCATAAAGCGTTCATTATATAGTAGATGCAAAACCGAAAGAAAATGACACGGACATTTGAATTATTGAAAAGAAATCTTAAACTACTTGAACAATTTAAAAAAATGGAAAGTTTAGTATATGTATAACATATGATTGATTTGGAAGAGGGTGATTA
B9: BclA adjacent US Glycosyl transferase promoter 1 (SEQ ID NO: 101): BclA cluster glycosyl transferase operon 1 promoter (nucleic acid, listed as Bacillus thuringiensis)
DNA: ATTTTTTACTTAGCAGTAAAACTGATATCAGTTTTACTGCTTTTTCATTTTTAAATTCAATCATTAAATCTTCCTTTTCTACATAGTCATAATGTTGTATGACATTCCGTAGGAGGCACTTATA
modifications: expressed or natural sequence
notes: BclA cluster glycosyl transferase operon 1 promoter
B10: InhA (SEQ ID NO: 100): InhA promoter (B. thuringiensis Al Hakam) (nucleic acid, listed as Bacillus thuringiensis)
DNA: TATCACATAACTCTTTATTTTTAATATTTCGACATAAAGTGAAACTTTAATCAGTGGGGGCTTTGTTCATCCCCCCACTGATTATTAATTGAACCAAGGGATAAAAAGATAGAGGGTCTGACCAGAAAACTGGAGGGCATGATTCTATAACAAAAAGCTTAATGTTTATAGAATTATGTCTTTTTATATAGGGAGGGTAGTAAACAGAGATTTGGACAAAAATGCACCGATTTATCTGAATTTTAAGTTTTATAAAGGGGAGAAATG
B11: BclC (SEQ ID NO: 98) (nucleic acid, listed as Bacillus anthracis)
DNA: TGAAGTATCTAGAGCTAATTTACGCAAAGGAATCTCAGGACAACACTTTCGCAACACCTATATTTTAAATTTAATAAAAAAAGAGACTCCGGAGTCAGAAATTATAAAGCTAGCTGGGTTCAAATCAAAAATTTCACTAAAACGATATTATCAATACGCAGAAAATGGAAAAAACGCCTTATCATAAGGCGTTTTTTCCATTTTTTCTTCAAACAAACGATTTTACTATGACCATTTAACTAATTTTTGCATCTACTATGATGAGTTTCATTCACATTCTCATTAGAAAGGAGAGATTTAATG
B12: BxpB/ExsFA (SEQ ID NO: 95): BxpB promoter (B. thuringiensis Al Hakam) (nucleic acid, listed as Bacillus thuringiensis)
DNA: AAACTAAATAATGAGCTAAGCATGGATTGGGTGGCAGAATTATCTGCCACCCAATCCATGCTTAACGAGTATTATTATGTAAATTTCTTAAAATTGGGAACTTGTCTAGAACATAGAACCTGTCCTTTTCATTAACTGAAAGTAGAAACAGATAAAGGAGTGAAAAACA

In the first data set the test system is Corn. Briefly: Corn growth after BEMD PhoA4 spores with or without polyphosphate (Example 11). As to conditions: Additive: Polyphosphate 0.5 mg/pot; corn height at two weeks. Format: in vivo.
For the molecule Polyphosphate, the “Growth, Comparison to Water” value amounted to 110.8%.

The subject of another data set is sigma K driven genes in Bacillus cereus family members.
Experiment: not given
As to conditions: microarray data from Bergman et al., 2008; late sporulation, 300 minutes; cited from earlier work.
As for B1, the “Relative Expression (Fold increase in mRNA)” value is 75.69 Fold.
As to B2, the “Relative Expression (Fold increase in mRNA)” value is on record as 79.21 Fold.
For the molecule B3, the “Relative Expression (Fold increase in mRNA)” value is recorded as 70.56 Fold.
For the molecule B4, the “Relative Expression (Fold increase in mRNA)” value is 64 Fold.
As to B5, the “Relative Expression (Fold increase in mRNA)” value is reported as 32.49 Fold.
On to B6, for which the “Relative Expression (Fold increase in mRNA)” value is listed as 64 Fold.
Turning to B7, the “Relative Expression (Fold increase in mRNA)” value is recorded as 77.44 Fold.
With B8, the “Relative Expression (Fold increase in mRNA)” value is on record as 73.96 Fold.
For the molecule B9, the “Relative Expression (Fold increase in mRNA)” value is recorded as 72.25 Fold.
Turning to B10, the “Relative Expression (Fold increase in mRNA)” value is given as 34.25 Fold.
With B11, the “Relative Expression (Fold increase in mRNA)” value is recorded as 14.44 Fold.
B12: the “Relative Expression (Fold increase in mRNA)” value is reported as 30.25 Fold.

In a further data set the test system is corn plants at the V5 stage. Briefly: Foliar application to corn under heat and water stress (Example 38). Format: in vivo.
Details: not given
Turning to `c1ccc2snnc2c1` [Benzothiadiazole (BTH), Benzothiadiazole], the “effect on growth of stressed corn” value is reported as “positive responses”.
As for `O=C(O)c1ccccc1O` [Salicylic Acid], the “effect on growth of stressed corn” value is on record as “positive responses”.

Staying with this data set, now noted: foliar spray 1 ml/plant; 32.2° C., watering once per week; compared to water-only control.
In the case of `c1ccc2snnc2c1` [Benzothiadiazole (BTH), Benzothiadiazole], the “Change in plant Height over 2 week stress” value was determined as 7.3%.
Same read-out and setting: the figure for `O=C(O)c1ccccc1O` [Salicylic Acid] is 5.8%.
